Paper PMC4474781 (Environmental microbiology, 2015)

Target: T1, oxidoreductase FAD/NAD(P)-binding subunit (Dred_1685), His6-tagged, co-expressed with Dred_1686 (Desulfotomaculum reducens MI-1, UniProt A4J559 1-262)
T1 sequence (looked up): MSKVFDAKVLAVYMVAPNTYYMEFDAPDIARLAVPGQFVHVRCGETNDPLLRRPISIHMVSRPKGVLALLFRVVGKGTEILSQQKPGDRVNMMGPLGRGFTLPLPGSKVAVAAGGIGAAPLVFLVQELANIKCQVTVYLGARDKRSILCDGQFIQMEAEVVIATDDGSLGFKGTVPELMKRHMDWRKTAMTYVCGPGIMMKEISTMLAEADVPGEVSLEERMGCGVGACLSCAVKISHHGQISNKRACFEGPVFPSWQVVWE
Assay: pull-down

B1: dihydroorotate dehydrogenase 1B (Dred_1686), untagged, co-expressed with His6-Dred_1685 (enzyme, Desulfotomaculum reducens MI-1, UniProt A4J560 1-304, looked up)
chain: MKLNLAVKIGQLDMINPVTTASGTFGYGQEYSPYVDLNQLGAIVVKGTTLEPREGNPTPRLVETPSGILNSIGLQNSGVDYLLEHYVPFFKKLQTNVIVNISGNTAEEYGQLAARLDEADGIAALEVNISCPNVKKGGMAFGGDFRTAAEVTKVVKNSTALPVIVKLSPNVTDIAEIARAVEGAGADGLSVINTLLGMAIDVRKRKPVLGNTMGGLSGPAVKPVALRAVWQVYKAVHIPIIGMGGIMNATDALEFILAGAQAVSVGTANFVNPYATKEIIQGMEKYLMENGIGDINELVGAAHL
stoichiometry N: 1
